According to paper PMC2574963:

Molecular target: Heat shock protein 90α (human) (UniProt P07900)
Assay: pull-down

## Recombinant human Hsp70 (from UniProt P0DMV8 1-641) (natural protein)
  percent eluted, Hsp70 alone without m3 (control beads' nonadsorbed = 100%): 18%
  percent nonadsorbed, Hsp70 alone without m3 (control beads' nonadsorbed = 100%): 70%
